{"source": "patent US20160031958", "proteins": {"B1": {"name": "FLAG-CTDSP1 (protein)", "chain": "MDSSAVITQISKEEARGPLRGKGDQKSAASQKPRSRGILHSLFCCVCRDDGEALPAHSGAPLLVEENGAIPKQTPVQYLLPEAKAQDSDKICVVIDLDETLVHSSFKPVNNADFIIPVEIDGVVHQVYVLKRPHVDEFLQRMGELFECVLFTASLAKYADPVADLLDKWGAFRARLFRESCVFHRGNYVKDLSRLGRDLRRVLILDNSPASYVFHPDNAVPVASWFDNMSDTELHDLLPFFEQLSRVDDVYSVLRQPRPGS"}}, "key": {"[1]": {"molecular_target": "T1, FLAG-REST (unmutated, full-length), Q13127", "T1 chain": "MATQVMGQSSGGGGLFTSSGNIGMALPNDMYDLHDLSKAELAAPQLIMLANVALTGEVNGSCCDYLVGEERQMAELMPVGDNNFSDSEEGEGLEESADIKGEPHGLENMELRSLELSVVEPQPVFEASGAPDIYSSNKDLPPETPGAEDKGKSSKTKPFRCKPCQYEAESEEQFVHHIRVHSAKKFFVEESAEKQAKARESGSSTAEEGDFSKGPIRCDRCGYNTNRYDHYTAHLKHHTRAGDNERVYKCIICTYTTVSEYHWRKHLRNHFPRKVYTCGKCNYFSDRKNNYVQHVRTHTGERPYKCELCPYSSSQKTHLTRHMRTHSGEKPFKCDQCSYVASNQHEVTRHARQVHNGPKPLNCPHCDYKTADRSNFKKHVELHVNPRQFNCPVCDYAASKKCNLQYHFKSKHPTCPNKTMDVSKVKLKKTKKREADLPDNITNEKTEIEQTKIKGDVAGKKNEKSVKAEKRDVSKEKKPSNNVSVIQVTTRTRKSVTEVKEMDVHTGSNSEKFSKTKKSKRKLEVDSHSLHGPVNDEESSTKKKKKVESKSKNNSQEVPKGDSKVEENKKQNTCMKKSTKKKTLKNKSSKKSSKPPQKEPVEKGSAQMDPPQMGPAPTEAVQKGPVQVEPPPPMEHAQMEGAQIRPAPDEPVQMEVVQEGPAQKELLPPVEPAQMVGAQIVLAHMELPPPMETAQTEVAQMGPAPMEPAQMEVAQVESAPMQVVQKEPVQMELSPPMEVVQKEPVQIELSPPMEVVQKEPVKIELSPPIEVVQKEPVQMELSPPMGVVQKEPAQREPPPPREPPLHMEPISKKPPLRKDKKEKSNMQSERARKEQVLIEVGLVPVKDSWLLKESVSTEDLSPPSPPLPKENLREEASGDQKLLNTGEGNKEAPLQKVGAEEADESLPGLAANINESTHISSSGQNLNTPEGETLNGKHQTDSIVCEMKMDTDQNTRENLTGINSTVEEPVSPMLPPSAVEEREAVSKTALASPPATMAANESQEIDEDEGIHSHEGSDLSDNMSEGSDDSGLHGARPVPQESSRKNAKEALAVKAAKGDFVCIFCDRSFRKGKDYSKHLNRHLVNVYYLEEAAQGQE"}, "[2]": {"molecular_target": "T2, FLAG-REST (810-910)-GFP reporter peptide, unmutated", "T2 chain": "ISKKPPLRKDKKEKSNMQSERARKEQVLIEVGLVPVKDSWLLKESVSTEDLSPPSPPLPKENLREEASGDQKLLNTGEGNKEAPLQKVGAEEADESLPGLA"}}, "data": [{"protein": "B1", "values": [{"measurement": "Western blot with REST phospho-specific polyclonal antibody", "setting": "[1]", "result": "exogenously expressed FLAG-CTDSP1 dephosphorylated these sites in full-length REST"}, {"measurement": "in-gel GFP fluorescence on native gel (mobility shift)", "setting": "[2]", "result": "Dephosphorylation by CTDSP1 was also observed in the REST reporter peptides"}]}]}
